This passage reports Activity (EC50, nM) for cAMP in MOP receptor over-expressing HEK293 cells results from publication PMC10020352.

The target in the test is Mu-opioid receptor, P35372.
Sequence of Mu-opioid receptor, P35372 (P35372 whole entry): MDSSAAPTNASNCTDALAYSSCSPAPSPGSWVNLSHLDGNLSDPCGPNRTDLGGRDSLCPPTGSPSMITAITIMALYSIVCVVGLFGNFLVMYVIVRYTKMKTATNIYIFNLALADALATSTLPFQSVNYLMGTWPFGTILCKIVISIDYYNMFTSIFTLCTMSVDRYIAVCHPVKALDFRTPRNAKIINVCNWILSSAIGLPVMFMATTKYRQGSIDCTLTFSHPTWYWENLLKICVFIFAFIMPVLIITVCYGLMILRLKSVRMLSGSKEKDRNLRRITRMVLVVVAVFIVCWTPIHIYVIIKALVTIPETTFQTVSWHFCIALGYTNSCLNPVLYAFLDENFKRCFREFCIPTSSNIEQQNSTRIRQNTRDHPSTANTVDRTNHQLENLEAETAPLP

B1: Dyn1-7 (peptide)
chain: YGGFLRR
modifications: not checked
Take B1: the Activity (EC50, nM) for cAMP in MOP receptor over-expressing HEK293 cells came to 3740 nM.
